Test results taken from US20040171117A1 (GlaxoSmithKline, published 2004).

T1: soluble human RANKL protein (shRANKL) (human, UniProt O14788 140-317, limits assumed, biotinylated at a 20:1 molar ratio of NHS-biotin to protein (competition ELISA only))
T1 construct: also called sRANKL; soluble RANKL
T1 sequence (looked up): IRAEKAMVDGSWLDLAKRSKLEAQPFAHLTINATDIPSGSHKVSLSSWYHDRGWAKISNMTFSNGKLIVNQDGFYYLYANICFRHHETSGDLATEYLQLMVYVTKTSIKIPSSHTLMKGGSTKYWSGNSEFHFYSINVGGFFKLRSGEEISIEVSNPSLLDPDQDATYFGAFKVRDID


Columns and labels:
[1] = target: T1, soluble human RANKL protein (shRANKL); assay: not stated there (paragraph 33 defines high affinity as determined by optical biosensor analysis)
[2] = target: T1, soluble human RANKL protein (shRANKL); assay: cell-based or functional assay
[3] = target: T1, soluble human RANKL protein (shRANKL); assay: competition ELISA: inhibition of biotinylated shRANKL binding to coated RANK-Fc
Text: (§1) A. A competition ELISA was established using a human RANK-Fc fusion protein coated on plastic and a biotinylated soluble human RANKL protein for detection in solution. The RANK-Fc and RANKL proteins were produced in CHO cells and Pichia pastoris, respectively, and purified to >90% homogeneity. The shRANKL (soluble, human RANKL) protein was biotinylated at a 20:1 molar ratio of NHS-biotin to protein (Pierce, Rockford, Ill.) according to th manufacturer's specifications. 96-well ELISA plates were coated overnight at 4° C. with 50 ng/well ([…]) RANK-Fc in pH 9.6 carbonate-bicarbonate buffer. Plates were washed in pH 7.4 Tris-Saline buffer containing 0.1% Tween 20 and blocked for 2 h at RT in 1% BSA/PBS. Competitor proteins (RANK-Fc; death receptor 5 (DR5)-Fc; OPG-Fc; RANKL MAb 19H22) were diluted in 0.01% Tween 20/PBS and added to wells prior to the addition of biotinylated shRANKL (0.43 nM) and the combined samples were incubated for 2 hrs at room temperature. The amount of biotinylated shRANKL bound to coated RANK-Fc (+/−competitor) was measured using alkaline phosphatase conjugated streptavidin. The substrate for signal detection was 105 PNPP (Pierce Inc., Rockford, Ill.) and absorbance measured at 405 nm using a Spectra Max 340 plate reader.

[4] = target: T1, soluble human RANKL protein (shRANKL); assay: competition ELISA: soluble RANK-Fc inhibiting biotinylated shRANKL binding to coated RANK-Fc
Text: as §1

Kd [1] | IC50 [3] | IC50 [4] | Binder | IC50, human monocyte osteoclastogenesis (formation of multinuclear cells) with 50 ng/ml human soluble RANKL plus M-CSF [2]
~0.1 nM | ~2 nM | – | RANKL MAb 19H22 (mouse monoclonal antibody 19H22) (antibody, IgG2b, V domains shown, also called 19H22 MAb; murine RANKL MAb 19H22) VH: EIQLQQSGAELVNPGASVKLSCTASGFNIKGTYMHWVKQRPEQGLEWIGRIDPANGNTKYDPKFQGKATITTDTSPNTAYLQLSSLTSEDTAVYYCTTQFHYYGYGGVYWGQGTLVTVSA VL: QIVLTQSPAIMSASPGEKVTMTCSASSSVSYMYWYQQKPGSSPRLLIYDTSNLASGVPVRFSGSGSGTSYSLTISRMEAEDAATYYCQQWSNFPLTFGAGTKLELKR | ~4 µg/mL
– | – | ~6 nM | human RANK-Fc fusion protein (Fc fusion, UniProt Q9Y6Q6 30-212, looked up, Produced in CHO cells; not shown: Fc part) IAPPCTSEKHYEHLGRCCNKCEPGKYMSSKCTTTSDSVCLPCGPDEYLDSWNEEDKCLLHKVCDTGKALVAVVAGNSTTPRRCACTAGYHWSQDCECCRRNTECAPGLGAQHPLQLNKDTVCKPCLAGYFSDAFSSTDKCRPWTNCTFLGKRVEHHGTEKSDAVCSSSLPARKPPNEPHVYLP | ~0.5 µg/mL
– | ~0.5 nM | – | OPG-Fc (Fc fusion, UniProt O00300 22-201, looked up, Construct not described; also called osteoprotegerin-Fc; not shown: Fc part; not described) ETFPPKYLHYDEETSHQLLCDKCPPGTYLKQHCTAKWKTVCAPCPDHYYTDSWHTSDECLYCSPVCKELQYVKQECNRTHNRVCECKEGRYLEIEFCLKHRSCPPGFGVVQAGTPERNTVCKRCPDGFFSNETSSKAPCRKHTNCSVFGLLLTQKGNATHDNICSGNSESTQKCGIDVTL | –
